In patent US20160367623A1, “AGONISTS OF GUANYLATE CYCLASE USEFUL FOR THE TREATMENT OF GASTROINTESTINAL DISORDERS, INFLAMMATION, CANCER AND OTHER DISORDERS” (priority 2015, published 2016):
Bridge positions count the residues as written; N and C are the ends. Ends that are not written are not given here.

System: patients with chronic idiopathic constipation (CIC)
Experiment: Second phase 3 CIC trial: treatment emergent adverse events, safety

## Asn^1-Asp^2-Glu^3-Cys^4-Glu^5-Leu^6-Cys^7-Val^8-Asn^9-Val^10-Ala^11-Cys^12-Thr^13-Gly^14-Cys^15-Leu^16 (NDECELCVNVACTGCL; disulfide 4-12, 7-15) [Plecanatide]
3 mg
  Infections and infestations, Severe: patients N: 0
  Infections and infestations: events E: 38
  Infections and infestations: patients %: (7.3) %
  Infections and infestations: patients N: 34
  Influenza, Mild: events E: 2
  Influenza, Mild: patients %: (0.4) %
  Influenza, Mild: patients N: 2
  Influenza, Moderate: events E: 0
  Influenza, Moderate: patients N: 0
  Influenza, Severe: events E: 0
  Influenza, Severe: patients N: 0
  Influenza: events E: 2
  Influenza: patients %: (0.4) %
  Influenza: patients N: 2
  Injury, poisoning and procedural complications, Mild: events E: 6
  Injury, poisoning and procedural complications, Mild: patients %: (0.9) %
  Injury, poisoning and procedural complications, Mild: patients N: 4
  Ligament sprain, Mild: events E: 1
  Ligament sprain, Mild: patients %: (0.2) %
  Ligament sprain, Mild: patients N: 1
  Ligament sprain, Moderate: events E: 1
  Ligament sprain, Moderate: patients %: (0.2) %
  Ligament sprain, Moderate: patients N: 1
  Ligament sprain, Severe: events E: 0
  Ligament sprain, Severe: patients N: 0
  Ligament sprain: events E: 2
  Ligament sprain: patients %: (0.4) %
  Ligament sprain: patients N: 2
  Skeletal injury, Mild: events E: 0
  Skeletal injury, Mild: patients N: 0
  Skeletal injury, Moderate: events E: 0
  Skeletal injury, Moderate: patients N: 0
  Skeletal injury, Severe: events E: 0
  Skeletal injury, Severe: patients N: 0
  Skeletal injury: events E: 0
  Skeletal injury: patients N: 0
3 mg (N = 467)
  Ileus: events (E): 0
  Infections and infestations (SOC): events E: 38
  Infections and infestations (SOC): patients %: (7.3) %
  Infections and infestations (SOC): patients N: 34
  Influenza like illness, Mild: events (E): 0
  Influenza like illness, Moderate: events (E): 0
  Influenza like illness, Severe: events (E): 0
  Influenza like illness: events (E): 0
  Influenza like illness: events E: 0
  Influenza like illness: patients N: 0
  Influenza: events E: 2
  Influenza: patients %: (0.4) %
  Influenza: patients N: 2
  Injury, poisoning and procedural complications (SOC): events E: 10
  Nausea, Mild: events (E): 4
  Nausea, Mild: patients (%): (0.9) %
  Nausea, Moderate: events (E): 0
  SAE Musculoskeletal and connective tissue disorders, E events: 0
  SAE Musculoskeletal and connective tissue disorders, N patients: 0
  SAE Musculoskeletal and connective tissue disorders, No Reasonable Possibility, E events: 0
  SAE Musculoskeletal and connective tissue disorders, No Reasonable Possibility, N patients: 0
  SAE Musculoskeletal and connective tissue disorders, Reasonable Possibility, E events: 0
  SAE Musculoskeletal and connective tissue disorders, Reasonable Possibility, N patients: 0
6 mg
  Infections and infestations, Severe: patients N: 1
  Infections and infestations: events E: 51
  Infections and infestations: patients %: (9.2) %
  Infections and infestations: patients N: 43
  Influenza, Mild: events E: 4
  Influenza, Mild: patients %: (0.9) %
  Influenza, Mild: patients N: 4
  Influenza, Moderate: events E: 3
  Influenza, Moderate: patients %: (0.6) %
  Influenza, Moderate: patients N: 3
  Influenza, Severe: events E: 0
  Influenza, Severe: patients N: 0
  Influenza: events E: 7
  Influenza: patients %: (1.5) %
  Influenza: patients N: 7
  Injury, poisoning and procedural complications, Mild: events E: 4
  Injury, poisoning and procedural complications, Mild: patients %: (0.9) %
  Injury, poisoning and procedural complications, Mild: patients N: 4
  Ligament sprain, Mild: events E: 0
  Ligament sprain, Mild: patients N: 0
  Ligament sprain, Moderate: events E: 0
  Ligament sprain, Moderate: patients N: 0
  Ligament sprain, Severe: events E: 0
  Ligament sprain, Severe: patients N: 0
  Ligament sprain: events E: 0
  Ligament sprain: patients N: 0
  Skeletal injury, Mild: events E: 0
  Skeletal injury, Mild: patients N: 0
  Skeletal injury, Moderate: events E: 0
  Skeletal injury, Moderate: patients N: 0
  Skeletal injury, Severe: events E: 1
  Skeletal injury, Severe: patients %: (0.2) %
  Skeletal injury, Severe: patients N: 1
  Skeletal injury: events E: 1
  Skeletal injury: patients %: (0.2) %
  Skeletal injury: patients N: 1
6 mg (N = 469)
  Ileus: events (E): 0
  Infections and infestations (SOC): events E: 51
  Infections and infestations (SOC): patients %: (9.2) %
  Infections and infestations (SOC): patients N: 43
  Influenza like illness, Mild: events (E): 1
  Influenza like illness, Mild: patients (%): (0.2) %
  Influenza like illness, Moderate: events (E): 0
  Influenza like illness, Severe: events (E): 0
  Influenza like illness: events (E): 1
  Influenza like illness: events E: 1
  Influenza like illness: patients %: (0.2) %
  Influenza like illness: patients (%): (0.2) %
  Influenza like illness: patients N: 1
  Influenza: events E: 7
  Influenza: patients %: (1.5) %
  Influenza: patients N: 7
  Injury, poisoning and procedural complications (SOC): events E: 9
  Nausea, Mild: events (E): 3
  Nausea, Mild: patients (%): (0.6) %
  Nausea, Moderate: events (E): 2
  Nausea, Moderate: patients (%): (0.4) %
  SAE Musculoskeletal and connective tissue disorders, E events: 0
  SAE Musculoskeletal and connective tissue disorders, N patients: 0
  SAE Musculoskeletal and connective tissue disorders, No Reasonable Possibility, E events: 0
  SAE Musculoskeletal and connective tissue disorders, No Reasonable Possibility, N patients: 0
  SAE Musculoskeletal and connective tissue disorders, Reasonable Possibility, E events: 0
  SAE Musculoskeletal and connective tissue disorders, Reasonable Possibility, N patients: 0
Active Combined
  Influenza, Mild: events E: 6
  Influenza, Mild: patients %: (0.6) %
  Influenza, Mild: patients N: 6
  Influenza, Moderate: events E: 3
  Influenza, Moderate: patients %: (0.3) %
  Influenza, Moderate: patients N: 3
  Influenza, Severe: events E: 0
  Influenza, Severe: patients N: 0
  Influenza: events E: 9
  Influenza: patients %: (1.0) %
  Influenza: patients N: 9
  Skeletal injury, Mild: events E: 0
  Skeletal injury, Mild: patients N: 0
  Skeletal injury, Moderate: events E: 0
  Skeletal injury, Moderate: patients N: 0
  Skeletal injury, Severe: events E: 1
  Skeletal injury, Severe: patients %: (0.1) %
  Skeletal injury, Severe: patients N: 1
  Skeletal injury: events E: 1
  Skeletal injury: patients %: (0.1) %
  Skeletal injury: patients N: 1
Active Combined (N = 936)
  Infections and infestations (SOC): events E: 89
  Infections and infestations (SOC): patients %: (8.2) %
  Infections and infestations (SOC): patients N: 77
  Influenza like illness, Mild: events (E): 1
  Influenza like illness, Mild: patients (%): (0.1) %
  Influenza like illness, Moderate: events (E): 0
  Influenza like illness, Severe: events (E): 0
  Influenza like illness: events (E): 1
